Consider five molecules from patent publication US20240132622A1 (Bristol-Myers Squibb, published 2024).

Experiment [1] deals with T1, mouse PAD4 (mouse, UniProt Q9Z183 1-666).
T1 construct: also called mPAD4; murine PAD4
In words: SPR 37 C, antibody on anti-murine capture surface, PAD4 analyte, 2 mM CaCl2. The procedure: SPR Methods. In general, SPR methods were as described in Example 3 above with the following modifications. An anti-murine capture surface was used that was prepared by immobilizing anti-murine capture antibody (Cytiva catalog #BR100838) onto flow cells of a CM5 biosensor following the manufacturer's amine coupling protocol (Cytiva catalog #BR-1006-33). SPR experiments were conducted at 37° C. using HBS-P (150 mM NaCl, 10 mM HEPES, pH 7.6, 0.05% Tween-20) (TEKNOVA catalog #H8032) with additional 500 mM NaCl and 2 mM CaCl₂) as running buffer. Several concentrations of PAD4, from 0.8 nM to 150 nM were prepared using the running buffer. The association and dissociation of the antibodies with PAD4 were measured. Two 90 second injections of 10 mM glycine pH 1.7 was used to regenerate the anti-murine capture surface.

For experiment [2], the target named is T1, mouse PAD4. In words: cell-based or functional assay.
Experiment [3] has as its target T2, recombinant human PAD4 (human, UniProt Q9UM07 1-663). The experiment is described as follows: cell-based or functional assay.
Experiment [4] addresses T2, recombinant human PAD4. The experiment is described as follows: SPR 37 C, captured antibody, PAD4 analyte, 1 mM CaCl2; 1 mM CaCl2, 37 C; mean of two or three experiments. The procedure: (§1) For SPR measurements, either an anti-human capture surface or Protein A surface (Cytiva catalog #29127555) was used. Anti-human capture surface was prepared by immobilizing anti-human capture antibody (Cytiva catalog #29234600) onto flow cells of a CM5 or CM4 biosensor following the manufacturer's amine coupling protocol (Cytiva catalog #BR-1006-33). SPR experiments were conducted at 37° C. using HBS-P (150 mM NaCl, 10 mM HEPES, pH 7.6, 0.05% Tween-20) (TEKNOVA catalog #H8032) with additional 150 mM NaCl and 1 mM or 2 mM CaCl₂) (see Table 2) or 2 mM EDTA (see Table 3) as running buffer. Antibodies were diluted to 1.5 μg/mL in the running buffer, and were captured across active biosensor flow cells at 10 μL/min for 15 to 30 seconds. […] The association and dissociation of the antibodies with PAD4 were measured. One 30 second injection followed by one 15 second injection of 10 mM glycine pH 1.5 was used to regenerate the Protein A capture surface between assay cycles. For anti-human capture surface, two 30 second injections of 3 M MgCl₂ was used for regeneration. […]
(§2) Rate constants kₒₙ and koff were derived from reference flow cell- and 0 nM blank-subtracted sensorgrams, and were fit to a 1:1 binding model in Biacore® Insight Evaluation software version 3.0.12.15655. […] The equilibrium dissociation constant, KD, was calculated as the ratio of rate constants koff/kₒₙ for each PAD4 antibody. […]

In experiment [5] the target is extracellular matrix (ECM) proteins. In words: ECM plate ELISA (Matrigel), 1 uM antibody, A450 over wells without sample.
Experiment [6] deals with T2, recombinant human PAD4. The experiment is described as follows: SPR 37 C, captured antibody, PAD4 analyte, 2 mM EDTA. On the procedure:
(§3) For SPR measurements, either an anti-human capture surface or Protein A surface (Cytiva catalog #29127555) was used. Anti-human capture surface was prepared by immobilizing anti-human capture antibody (Cytiva catalog #29234600) onto flow cells of a CM5 or CM4 biosensor following the manufacturer's amine coupling protocol (Cytiva catalog #BR-1006-33). SPR experiments were conducted at 37° C. using HBS-P (150 mM NaCl, 10 mM HEPES, pH 7.6, 0.05% Tween-20) (TEKNOVA catalog #H8032) with additional 150 mM NaCl and 1 mM or 2 mM CaCl₂) (see Table 2) or 2 mM EDTA (see Table 3) as running buffer. Antibodies were diluted to 1.5 μg/mL in the running buffer, and were captured across active biosensor flow cells at 10 μL/min for 15 to 30 seconds. […] The association and dissociation of the antibodies with PAD4 were measured. One 30 second injection followed by one 15 second injection of 10 mM glycine pH 1.5 was used to regenerate the Protein A capture surface between assay cycles. For anti-human capture surface, two 30 second injections of 3 M MgCl₂ was used for regeneration. SPR measurements for mAb20 and mAb 13 SPR were done in the presence of 2 mM CaCl₂). The remaining antibodies were tested in the presence of 1 mM CaCl₂).
(§4) Rate constants kₒₙ and koff were derived from reference flow cell- and 0 nM blank-subtracted sensorgrams, and were fit to a 1:1 binding model in Biacore® Insight Evaluation software version 3.0.12.15655. Deviations from 1:1 binding model were observed, which may be caused by increased dimerization of PAD4 at higher concentrations. The equilibrium dissociation constant, KD, was calculated as the ratio of rate constants koff/kₒₙ for each PAD4 antibody. For those antibodies that were tested in multiple SPR experiments, the average value and standard deviation from two or three separate experiments are listed in Tables 2 and 3.

The target of experiment [7] is T2, recombinant human PAD4. The experiment is described as follows: SPR 37 C, captured antibody, PAD4 analyte, 1 mM CaCl2. The procedure: Their binding to human PAD4 was measured by Surface Plasmon Resonance (SPR). SPR measurements were performed with a Biacore® 8K, 8K+, or T200 instrument (Cytiva). The association rate constants, kₒₙ, dissociation rate constants, koff, and equilibrium dissociation constants, KD, of the antibodies with PAD4 were determined from these SPR measurements.
as §3
Rate constants kₒₙ and koff were derived from reference flow cell- and 0 nM blank-subtracted sensorgrams, and were fit to a 1:1 binding model in Biacore® Insight Evaluation software version 3.0.12.15655. Deviations from 1:1 binding model were observed, which may be caused by increased dimerization of PAD4 at higher concentrations. The equilibrium dissociation constant, KD, was calculated as the ratio of rate constants koff/kₒₙ for each PAD4 antibody.

Experiment [8] has as its target T2, recombinant human PAD4. The experiment is described as follows: cell-based or functional assay. The source holds these as a separate data set.
In experiment [9] the target is T3, recombinant human GST-PAD4 fusion protein (human, UniProt Q9UM07 1-663).
T3 construct: not shown: GST tag
In words: BLI (BLITZ), GST-PAD4 on anti-GST biosensor. On the procedure: Affinity testing methods. Affinity of each antibody clone for a GST-PAD4 fusion protein was determined by Biolayer Interferometry (BLI) using a BLITZ instrument (Forte Bio, Menlo Park, California), using a biosensor chip (Anti-GST chip, Forte Bio, Cat. No. 18-5096). The biosensor was treated with citrate buffer, PBS, or PBS/Ca for 15 seconds; recombinant human GST-PAD4 was added on a drop holder for 80 seconds to prime the biosensor with PAD4; antibody was then added on the drop holder for 80 seconds to allow binding between antibody and the PAD4; PBS/PBS-Ca was added on the drop holder for 60 seconds to remove unbound antibody. The association rate constants, kₒₙ, dissociation rate constants, koff, and equilibrium dissociation constants, KD, were determined using BLITZ Pro Software, version 1.2.0.49.

The target of experiment [10] is T2, recombinant human PAD4. The experiment is described as follows: SPR 37 C, captured antibody, PAD4 analyte, 2 mM CaCl2. On the procedure:
as §3, §4

The target in experiment [11] is T4, N-His-TVMV-PAD4 (human, UniProt Q9UM07 1-663).
T4 construct: E. coli expressed; used for the cryo-EM complex with clone 13 Fab, seen as a 2:2 assembly; also called Human PAD4 (1-663); full-length PAD4 construct with cleavable N-terminal his tag
T4 chain: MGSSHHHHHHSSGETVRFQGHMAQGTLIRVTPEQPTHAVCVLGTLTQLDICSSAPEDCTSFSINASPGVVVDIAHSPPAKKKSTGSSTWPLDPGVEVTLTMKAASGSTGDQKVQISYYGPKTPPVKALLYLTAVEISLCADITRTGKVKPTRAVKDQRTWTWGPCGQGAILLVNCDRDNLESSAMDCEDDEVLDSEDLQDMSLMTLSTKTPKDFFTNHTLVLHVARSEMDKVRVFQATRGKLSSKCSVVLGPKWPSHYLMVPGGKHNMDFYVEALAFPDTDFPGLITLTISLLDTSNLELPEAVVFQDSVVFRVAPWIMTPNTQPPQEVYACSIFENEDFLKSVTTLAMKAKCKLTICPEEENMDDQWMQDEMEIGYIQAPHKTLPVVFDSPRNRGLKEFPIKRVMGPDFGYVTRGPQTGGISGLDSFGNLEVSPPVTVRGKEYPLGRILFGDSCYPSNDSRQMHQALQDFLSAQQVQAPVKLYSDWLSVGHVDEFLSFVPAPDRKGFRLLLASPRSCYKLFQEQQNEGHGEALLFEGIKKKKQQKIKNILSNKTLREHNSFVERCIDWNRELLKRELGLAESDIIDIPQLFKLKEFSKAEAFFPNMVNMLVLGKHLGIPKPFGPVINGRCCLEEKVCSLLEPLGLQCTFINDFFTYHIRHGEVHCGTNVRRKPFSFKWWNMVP
In words: complex purified by size exclusion chromatography; cryo-EM.

Experiment [12] has as its target T2, recombinant human PAD4. In words: cell-based or functional assay. The source holds these as a separate data set.
In experiment [13] the target is T2, recombinant human PAD4. The experiment is described as follows: SPR 37 C, captured antibody, PAD4 analyte, 2 mM CaCl2; biphasic response, approximate KD; 2 mM CaCl2, 37 C; biphasic response. On the procedure:
as §1, §2

T1 sequence (Q9Z183 whole entry): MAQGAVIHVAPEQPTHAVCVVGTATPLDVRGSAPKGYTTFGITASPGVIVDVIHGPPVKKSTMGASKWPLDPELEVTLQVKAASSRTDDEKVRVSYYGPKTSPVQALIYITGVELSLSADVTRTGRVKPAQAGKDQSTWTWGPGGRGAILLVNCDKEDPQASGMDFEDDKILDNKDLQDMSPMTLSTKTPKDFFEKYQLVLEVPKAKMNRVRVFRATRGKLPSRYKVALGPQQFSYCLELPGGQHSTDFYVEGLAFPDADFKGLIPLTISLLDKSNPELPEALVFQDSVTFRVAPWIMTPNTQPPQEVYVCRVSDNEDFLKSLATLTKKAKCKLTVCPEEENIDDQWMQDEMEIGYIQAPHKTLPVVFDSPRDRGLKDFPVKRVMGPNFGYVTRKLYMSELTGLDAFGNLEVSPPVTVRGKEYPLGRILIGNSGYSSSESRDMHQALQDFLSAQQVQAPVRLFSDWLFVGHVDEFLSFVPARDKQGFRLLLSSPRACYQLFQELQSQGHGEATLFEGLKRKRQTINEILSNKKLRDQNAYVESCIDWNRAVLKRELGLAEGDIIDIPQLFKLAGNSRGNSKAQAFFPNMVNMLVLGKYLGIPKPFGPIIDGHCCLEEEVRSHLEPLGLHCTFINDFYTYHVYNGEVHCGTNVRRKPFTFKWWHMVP
T2 sequence (Q9UM07 whole entry): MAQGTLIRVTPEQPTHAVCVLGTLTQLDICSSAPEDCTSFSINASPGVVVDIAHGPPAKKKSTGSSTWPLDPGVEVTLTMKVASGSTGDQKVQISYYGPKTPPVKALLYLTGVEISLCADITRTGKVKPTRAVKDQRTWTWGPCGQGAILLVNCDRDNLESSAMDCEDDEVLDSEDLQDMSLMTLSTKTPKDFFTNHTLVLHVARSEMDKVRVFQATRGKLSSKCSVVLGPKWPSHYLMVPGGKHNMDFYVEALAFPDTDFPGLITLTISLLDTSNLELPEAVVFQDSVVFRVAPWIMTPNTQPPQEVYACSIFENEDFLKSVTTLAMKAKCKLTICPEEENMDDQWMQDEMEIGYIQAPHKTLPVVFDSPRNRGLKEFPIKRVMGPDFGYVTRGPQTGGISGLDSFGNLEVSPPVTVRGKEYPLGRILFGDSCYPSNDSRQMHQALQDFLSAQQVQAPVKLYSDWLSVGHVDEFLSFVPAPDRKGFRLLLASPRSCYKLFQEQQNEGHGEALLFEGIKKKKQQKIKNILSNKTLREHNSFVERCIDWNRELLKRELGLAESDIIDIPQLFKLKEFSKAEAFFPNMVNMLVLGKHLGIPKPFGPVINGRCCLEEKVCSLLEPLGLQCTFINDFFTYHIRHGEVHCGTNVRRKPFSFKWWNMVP

B1: mumAb (antibody, mouse IgG1, kappa, V domains shown)
VH: EVQLQQPGAELVKPGASVKLSCKASDHTFTTYWIHWVKQRPGRGLEWIGRIGPNSGGSKYNEKFRTKATLTVDKPSSTAYMQLSSLKSEDSAVYFCAFSNYLDYLDYWGQGTTLTVSS
VL: DIVLTQSPASLAVSLGQRATISCKASQSVDHDGEGYMNWYQQKPGQPPKLLIYAASNLESGIPARFSGSGSGTDFTLNIHPVEEEDAATYYCQQINEDPYTFGGGTKLEIKR
notes: Formatted as mIgG1-D265A; also called anti-murine PAD4 mAb; mouse anti-mPAD4 mumAb antibody
A word on the Kd: it is the concentration at which binding is half-saturated. For orientation: koff means a measure of how fast the partners let go of each other. As usually defined, the kon is the rate constant with which the complex forms. In experiment [1], B1 displayed a Kd of 0.7 nM, a koff of 0.0002 s⁻¹ and a kon of 290000 M⁻¹ s⁻¹. For the same molecule, the “IC50, mPAD4 citrullination of peptide …, RapidFire MS, 50 nM mPAD4” value in [2] was 13.2 nM.

B2: hz20-1 (antibody, V domains shown)
VH: QVQLVQSGAEVKKPGASVKVSCKASGYTFTNYGISWVRQAPGQGLEWMGEIYPRSGNTYHNEKFKDRVTMTRDTSTSTVYMELSSLRSEDTAVYYCARSMITTRYWYFDVWGKGTTVTVSS
VL: DIVMTQSPDSLAVSLGERATINCRASESVDTYGNSFMHWYQQKPGQPPKLLIYLASNLESGVPDRFSGSGSGTDFTLTISSLQAEDVAVYYCQQNNEDPLTFGAGTKLELK
notes: light constant region not tied to this antibody
Take B2: the “IC50 (average), PAD4 citrullination of peptide …, RapidFire MS” value (“IC50 (average), PAD4 citrullination” for short) in [3] turned out to be 77 nM. Also, the kon in experiment [4] was 550000 M⁻¹ s⁻¹. The molecule further came in with an ECM Score (1 µM) in experiment [5] of 1. Moreover, in [6], the Kd was found to be 2.6 nM, the koff came out at 0.00054 s⁻¹ and the kon is 220000 M⁻¹ s⁻¹. Besides, in experiment [7], the Kd is 2.7 nM and the koff is 0.00089 s⁻¹.

B3: clone 13 (mAb13) (antibody, V domains shown)
VH: EVLLQQSGAELVKPGASVRLSCTSSDFNIKDHFIHWVKQRTEQGLEWIGRIDPEDDETKYAPKFQDKVTITADTSSNTAYLQLSSLTSEDTAVFYCAGYGNYEGAMDYWGQGTSVTVSS
VL: DIVLTQSPTSLGVSPGQRATLSCRASENVNNYGIGFMNWFQQKPGQPPKLLIYAASRRGSGVPARFSGSGSGTDFSLNIHPMEEDDTAMYFCQQSKEVPYTFGGGTNLEIR
notes: Murine anti-human PAD4 antibody; also called murine anti-human clone 13 antibody
Turning to B3, the “IC50 (average), PAD4 citrullination” value in experiment [3] was 30 nM. Also, in experiment [8], the “IC50 of inhibition of PAD4 activity (% Activity against [AB Clone 13] nM)” value stood at 10.1 nM. Further, in experiment [9], the Kd is less than 0.0244 nM, the koff is less than 1e-06 s⁻¹ and the kon was determined as 41100 M⁻¹ s⁻¹. Further, in experiment [10], the Kd worked out at 3.2 nM, the koff came to 0.0011 s⁻¹ and the kon was 350000 M⁻¹ s⁻¹.

B4: clone 13 Fab (Fab, V domains shown)
VH: B3 VH
VL: DIVLTQSPTSLGVSPGQRATLSCRASENVNNYGIGFMNWFQQKPGQPPKLLIYAASRRGSGVPARFSGSGSGTDFSLNIHPMEEDDTAMYFCQQSKEVPYTFGGGTNLEIRR
notes: Heavy chain fragment with C-terminal His-tag; murine constant regions; also called Fab of clone 13; Fab13
As to B4, the binding result in experiment [11] is recorded as “binds”.

B5: clone 20 (mAb20) (antibody, V domains shown)
VH: QVQLQQSGAELARPGASVKLSCKATGYTFTNYGISWVKQRTGQGLEWIGEIYPRSGNTYHNEKFKDKATLTADKSSSTAYMEFRSLTSEDSAVYFCARSMITTRYWYFDVWGKGTTVTVSS
VL: NIVLTQSPASLAVSLGQRATLSCRASESVDTYGNSFMHWYQQKPGQPPKLLIYLASNLESGVPARFSGSGSRTDFTLTIDPVEADDAATYYCQQNNEDPLTFGAGTKLELK
notes: Murine anti-human PAD4 antibody; also called murine anti-human clone 20 antibody
B5: the “IC50 (average), PAD4 citrullination” value in [3] turned out to be 104 nM. Also, in experiment [12], the “IC50 of inhibition of PAD4 activity (% Activity against [AB Clone 20] nM)” value turned out to be 39.6 nM. The Kd in experiment [13] is approximately 150 nM. In addition, in experiment [9], the Kd was less than 1.71 nM, the koff was less than 1e-06 s⁻¹ and the kon was determined as 583 M⁻¹ s⁻¹. Also, in experiment [10], the koff worked out at 0.0062 s⁻¹ and the kon was determined as 43000 M⁻¹ s⁻¹.
